In patent US20020115606A1 (MYRIAD GENETICS, published 2002):

What was measured:
[1] = target: T1, neuroendocrine protein Discs Large 3 (NE-dlg, DLG3) amino acids 94-506 (yeast; human, UniProt P04386 768-881; Q92796 94-506); assay: yeast two-hybrid
T1 construct: also called SAP102
T1 sequence (looked up): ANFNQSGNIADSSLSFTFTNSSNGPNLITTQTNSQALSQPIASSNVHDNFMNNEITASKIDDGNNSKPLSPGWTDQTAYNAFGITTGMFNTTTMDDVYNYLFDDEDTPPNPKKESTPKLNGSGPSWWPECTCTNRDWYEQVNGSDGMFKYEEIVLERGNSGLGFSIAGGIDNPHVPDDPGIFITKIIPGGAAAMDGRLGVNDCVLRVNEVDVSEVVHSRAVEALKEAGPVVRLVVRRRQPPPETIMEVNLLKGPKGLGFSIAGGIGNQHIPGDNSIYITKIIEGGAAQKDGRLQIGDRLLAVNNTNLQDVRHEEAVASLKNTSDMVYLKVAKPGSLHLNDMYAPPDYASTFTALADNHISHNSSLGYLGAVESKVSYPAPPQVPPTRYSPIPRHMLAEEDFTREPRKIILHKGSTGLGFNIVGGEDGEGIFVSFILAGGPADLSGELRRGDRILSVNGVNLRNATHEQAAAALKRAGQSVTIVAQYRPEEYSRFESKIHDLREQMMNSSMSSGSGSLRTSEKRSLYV
Source text: (§1) The principles and methods of the yeast two-hybrid systems have been described in detail (Bartel and Fields, 1997). The following is thus a description of the particular procedure that was used, which was applied to all proteins.
(§2) The cDNA encoding the bait protein was generated by PCR from brain cDNA. Gene-specific primers were synthesized with appropriate tails added at their 5′ ends to allow recombination into the vector pGBTQ. The tail for the forward primer was 5′-[…]-3′ (SEQ ID NO: 1) and the tail for the reverse primer was 5′-[…]-3′ (SEQ ID NO:2). […] The new construct was selected directly in the yeast J693 for its ability to drive tryptophane synthesis (genotype of this strain: Mat α, ade2, his3, leu2, trp1, URA3::GAL1-lacZ LYS2::GAL1-HIS3 gal4del gal80del cyhR2). In these yeast cells, the bait is produced as a C-terminal fusion protein with the DNA binding domain of the transcription factor Gal4 (amino acids 1 to 147). A total human brain (person) cDNA library cloned into the yeast expression vector pACT2 was purchased from Clontech (human brain […] cDNA, cat. # HL4004AH), transformed into the yeast strain J692 (genotype of this strain: Mat α, ade2, his3, leu2, trp1, URA3::GAL1-lacZ LYS2::GAL1-HIS3 gal4del gal80del cyhR2), and selected for the ability to drive leucine synthesis. In these yeast cells, each cDNA is expressed as a fusion protein with the transcription activation domain of the transcription factor Gal4 (amino acids 768 to 881) and a 9 amino acid hemagglutinin epitope tag. J693 cells […] expressing the bait were then mated with J692 cells […] expressing proteins from the brain library. The resulting diploid yeast cells expressing proteins interacting with the bait protein were selected for the ability to synthesize tryptophane, leucine, histidine, and β-galactosidase.

[2] = target: T2, transcription factor HTF4A amino acids 296-494 (yeast; human, UniProt P04386 768-881; Q99081 296-494); assay: yeast two-hybrid
T2 sequence (looked up): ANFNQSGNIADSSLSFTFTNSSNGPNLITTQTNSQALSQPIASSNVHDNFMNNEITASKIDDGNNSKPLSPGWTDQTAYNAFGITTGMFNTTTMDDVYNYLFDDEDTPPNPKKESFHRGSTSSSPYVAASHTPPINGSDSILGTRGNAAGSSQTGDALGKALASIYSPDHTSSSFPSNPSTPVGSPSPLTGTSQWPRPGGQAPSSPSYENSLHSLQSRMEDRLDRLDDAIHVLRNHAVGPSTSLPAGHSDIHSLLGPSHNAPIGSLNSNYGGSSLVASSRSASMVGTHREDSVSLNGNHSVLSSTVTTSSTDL
Source text: as §1, §2

B1: bcr (break point cluster) amino acids 1206-1271, C-terminal bait (other, UniProt P04386 1-147, looked up)
chain: MKLLSSIEQACDICRLKKLKCSKEKPKCAKCLKNNWECRYSPKTKRSPLTRAHLTEVESRLERLEQLFLLIFPREDLDMILKMDSLQDIKALLTGLFVQDNVNKDAVTDRLASVETDMPLTLRQHRISATSSSEESSNKGQRQLTVSVFGPTLLRPSEKESKLPANPSQPITMTDSWSLEVMSQVQVLLYFLQLEAIPAPDSKRQSILFSTEV
B1: binds [1]; binds [2].
